Assay [1] concerns the target T1, recombinant human GST-MDM2 (human, UniProt Q00987 1-491).
T1 construct: source: recombinant
In words: fluorescence polarisation. The conditions noted are these: both partners purified. A general note: In fluorescence polarisation assays a small probe gives low polarisation when free and higher when bound to something large.

Assay [2] deals with T2, chemokine-like receptor 1 (CMKLR1) (UniProt Q99788 1-373).
T2 sequence (looked up): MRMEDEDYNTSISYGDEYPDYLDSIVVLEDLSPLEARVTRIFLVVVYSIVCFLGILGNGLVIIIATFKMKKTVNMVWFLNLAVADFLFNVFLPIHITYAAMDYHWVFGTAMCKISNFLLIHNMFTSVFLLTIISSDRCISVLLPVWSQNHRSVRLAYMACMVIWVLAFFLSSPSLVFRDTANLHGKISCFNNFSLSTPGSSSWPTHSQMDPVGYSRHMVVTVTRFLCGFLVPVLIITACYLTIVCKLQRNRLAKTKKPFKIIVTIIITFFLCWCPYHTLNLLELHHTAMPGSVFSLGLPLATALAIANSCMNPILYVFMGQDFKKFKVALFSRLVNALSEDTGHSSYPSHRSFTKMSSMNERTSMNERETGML
The experiment in a line: cell-based or functional assay.

[ ]: non-standard residue; d: D form. sulfo‑Cy5 = sulfo-cyanine 5 dye; Cit = NC(=O)NCCC[C@H](N)C(=O)O; Pra = C#CC[C@H](N)C(=O)O; (EG)3 = spacer

T1 sequence (Q00987 whole entry): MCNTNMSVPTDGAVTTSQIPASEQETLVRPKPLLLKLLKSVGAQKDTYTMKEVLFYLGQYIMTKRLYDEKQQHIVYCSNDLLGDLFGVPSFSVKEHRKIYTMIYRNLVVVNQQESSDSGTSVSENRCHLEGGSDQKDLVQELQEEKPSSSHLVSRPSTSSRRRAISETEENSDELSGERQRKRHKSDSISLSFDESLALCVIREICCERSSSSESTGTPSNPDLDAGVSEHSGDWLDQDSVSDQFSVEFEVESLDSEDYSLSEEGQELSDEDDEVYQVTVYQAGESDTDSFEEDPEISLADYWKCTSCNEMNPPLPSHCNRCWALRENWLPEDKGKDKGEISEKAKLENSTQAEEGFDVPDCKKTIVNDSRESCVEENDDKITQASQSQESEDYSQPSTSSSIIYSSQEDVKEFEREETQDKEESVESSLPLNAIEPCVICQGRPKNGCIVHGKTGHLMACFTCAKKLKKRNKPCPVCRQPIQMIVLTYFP

B1: Cy5-PMIγ-cC9 (peptide)
chain: {sulfo‑Cy5-(EG)3}-[dD][dW][dW][dP][dL][dA][dF][dE][dA][dL][dL][dR]GEV[Cit]-{(EG)3-Pra-NH2}
modifications: not fully specified (bridges); also: CuAAC triazole link from Pra to azidolysine of the cC9 chain
In the case of B1, in assay [1], the Kd came out at 90 nM. For the same molecule, the “Ca2+ flux assay, EC50” value in assay [2] stood at 185 nM.

A word on the Kd: it is the equilibrium constant for the complex coming apart.
